Data published in patent publication US11833164B2, “Methods of treating Fabry disease in patients having a mutation in the GLA gene” (Amicus Therapeutics, Inc., priority 2019, dated 2023).
Numbering of substitutions follows the chain as printed. Names and notes keep the numbering of the source.

B1: L106V (protein)
chain: MQLRNPELHLGCALALRFLALVSWDIPGARALDNGLARTPTMGWLHWERFMCNLDCQEEPDSCISEKLFMEMAELMVSEGWKDAGYEYLCIDDCWMAPQRDSEGRVQADPQRFPHGIRQLANYVHSKGLKLGIYADVGNKTCAGFPGSFGYYDIDAQTFADWGVDLLKFDGCYCDSLENLADGYKHMSLALNRTGRSIVYSCEWPLYMWPFQKPNYTEIRQYCNHWRNFADIDDSWKSIKSILDWTSFNQERIVDVAGPGGWNDPDMLVIGNFGLSWNQQVTQMALWAIMAAPLFMSNDLRHISPQAKALLQDKDVIAINQDPLGKQGYQLRQGDNFEVWERPLSGLAWAVAMINRQEIGGPRSYTIAVASLGKGVACNPACFITQLLPVKRKLGFYEWTSRLRSHINPTGTVLLQLENTMQMSLKDLL
B2: H115N (protein)
chain: B1 chain with V106L, H115N
B3: D109H (protein)
chain: B1 chain with V106L, D109H
B4: D109E (protein)
chain: B1 chain with V106L, D109E
B5: P114L (protein)
chain: B1 chain with V106L, P114L
B6: G116R (protein)
chain: B1 chain with V106L, G116R
B7: H115D (protein)
chain: B1 chain with V106L, H115D
B8: Q107H (protein)
chain: B1 chain with V106L, Q107H
B9: D109N (protein)
chain: B1 chain with V106L, D109N
B10: D109A (protein)
chain: B1 chain with V106L, D109A
B11: P110T (protein)
chain: B1 chain with V106L, P110T
B12: F113Y (protein)
chain: B1 chain with V106L, F113Y
B13: D109Y (protein)
chain: B1 chain with V106L, D109Y
B14: Q107K (protein)
chain: B1 chain with V106L, Q107K
B15: Q107E (protein)
chain: B1 chain with V106L, Q107E
B16: F113V (protein)
chain: B1 chain with V106L, F113V
B17: A108V (protein)
chain: B1 chain with V106L, A108V
B18: A108E (protein)
chain: B1 chain with V106L, A108E

System: mutant form of α-Gal A expressed in HEK-293 cells
Assay: HEK assay (GLP HEK / Migalastat Amenability Assay): α-Gal A activity in lysates of transiently transfected HEK-293 cells incubated with or without 10 μM migalastat
Type: cell-based, human
Conditions: for Absolute increase (% WT): 10 μM migalastat versus baseline; for Relative increase: 10 μM migalastat α-Gal A activity relative to baseline; for 10 μM migalastat α-Gal A activity (% WT): 5 days; for 10 μM migalastat α-Gal A activity (% WT) / Baseline α-Gal A activity (% WT): percentage of baseline wild-type α-Gal A activity; for 10 μM migalastat α-Gal A activity (% WT) / Baseline α-Gal A activity (% WT) / Baseline α-Gal A activity / 10 μM migalastat α-Gal A activity: mean ± SEM; for Baseline α-Gal A activity / 10 μM migalastat α-Gal A activity: lysates of HEK-293 cells transfected with the mutant form; for Baseline α-Gal A activity: incubated 5 days in the absence of migalastat; for 10 μM migalastat α-Gal A activity: incubated 5 days with 10 μM migalastat
Description: Such mutations or variants are also referred to herein as “HEK assay amenable” mutations or variants.
The α-Gal A activity is expressed as the nmoles of free 4-MU released per milligram of protein per hour (nmol/mg/hr).
In Table 7, values for the mean±standard error of the mean (SEM) were calculated. nmol/mg/hr indicates “nmoles of free 4-MU released per mg of protein per hour”. WT indicates “wild-type”. NC indicates “not calculable”. N/A indicates “not applicable”.

Molecule | Absolute increase (% WT) | Relative increase | 10 μM migalastat α-Gal A activity (% WT) | Baseline α-Gal A activity (% WT) (absence of migalastat) | Baseline α-Gal A activity | 10 μM migalastat α-Gal A activity | Baseline α-Gal A activity (nmol/mg/hr) (absence of migalastat, mean activity below the limit of detection (<142 nmol/mg/hr))
B1 | 19.8 % WT | 1.4 | 73.4 ± 5.9 % WT | 53.6 ± 4.3 % WT | 15393 ± 1288 nmol/mg/h | 20991 ± 1611 nmol/mg/h | 
B2 | 30.1 % WT | 1.7 | 75 ± 2.5 % WT | 44.9 ± 2.5 % WT | 13745 ± 890 nmol/mg/h | 23018 ± 1098 nmol/mg/h | 
B3 | 30.0 % WT | 2.2 | 54.6 ± 3.5 % WT | 24.6 ± 1.7 % WT | 7540 ± 684 nmol/mg/h | 16483 ± 1317 nmol/mg/h | 
B4 | 9.3 % WT | 1.2 | 50.6 ± 3.6 % WT | 41.3 ± 3.4 % WT | 13839 ± 1179 nmol/mg/h | 16926 ± 1156 nmol/mg/h | 
B5 | 5.4 % WT | 1.3 | 23.7 ± 1.3 % WT | 18.3 ± 2.1 % WT | 6229 ± 901 nmol/mg/h | 7973 ± 626 nmol/mg/h | 
B6 | 9.9 % WT | 2.7 | 15.4 ± 1.5 % WT | 5.4 ± 0.3 % WT | 1922 ± 143 nmol/mg/h | 5251 ± 464 nmol/mg/h | 
B7 | 14.1 % WT | 1.5 | 44.8 ± 3 % WT | 30.7 ± 2.9 % WT | 10284 ± 1141 nmol/mg/h | 15258 ± 1412 nmol/mg/h | 
B8 | 9.1 % WT | 1.2 | 50.8 ± 2 % WT | 41.7 ± 1.5 % WT | 12307 ± 487 nmol/mg/h | 14822 ± 384 nmol/mg/h | 
B9 | 36.5 % WT | 8.4 | 41.5 ± 2.8 % WT | 5 ± 0.3 % WT | 1475 ± 83 nmol/mg/h | 12358 ± 973 nmol/mg/h | 
B10 | 20.4 % WT | 2.2 | 38 ± 3.7 % WT | 17.5 ± 2.2 % WT | 6345 ± 1034 nmol/mg/h | 13742 ± 1780 nmol/mg/h | 
B11 | 18.6 % WT | 1.3 | 81.2 ± 6.5 % WT | 62.6 ± 5.9 % WT | 20474 ± 1528 nmol/mg/h | 26745 ± 1678 nmol/mg/h | 
B12 | 4.4 % WT |  | 4.4 ± 0.3 % WT |  |  | 1328 ± 79 nmol/mg/h | BLD (“BLD” indicates that the mean α-Gal A activity was below the limit of detection (<142 nmol/mg/hr))
B13 | 7.5 % WT | 11.9 | 8.2 ± 1.1 % WT | 0.7 ± 0.1 % WT | 212 ± 30 nmol/mg/h | 2530 ± 415 nmol/mg/h | 
B14 | 16.4 % WT | 1.4 | 54.6 ± 4.8 % WT | 38.2 ± 3.9 % WT | 14579 ± 2689 nmol/mg/h | 20402 ± 3399 nmol/mg/h | 
B15 | 10.4 % WT | 1.2 | 56.2 ± 3.3 % WT | 45.7 ± 3.1 % WT | 13148 ± 985 nmol/mg/h | 16149 ± 1059 nmol/mg/h | 
B16 | 9.2 % WT | 10.6 | 10.3 ± 1 % WT | 1.1 ± 0.1 % WT | 341 ± 41 nmol/mg/h | 3614 ± 596 nmol/mg/h | 
B17 | 34.4 % WT | 3.5 | 47.7 ± 4.6 % WT | 13.3 ± 1.7 % WT | 4914 ± 799 nmol/mg/h | 17249 ± 2284 nmol/mg/h | 
B18 | 14.2 % WT | 1.4 | 52.6 ± 4.6 % WT | 38.4 ± 2.6 % WT | 11629 ± 835 nmol/mg/h | 15648 ± 1305 nmol/mg/h | 
